# Test results published in publication PMC2686680, “Chibby forms a homodimer through a heptad repeat of leucine residues in its C-terminal coiled-coil motif” (BMC Molecular Biology, 2009).
# B1: Cby wild type fused to the N-terminal (RN) or C-terminal (RC) portion of synthetic Renilla luciferase (hRluc) [human] / itself (parent complex)
# chain: MPFFGNTFSPKKTPPRKSASLSNLHSLDRSTREVELGLEYGSPTMNLAGQSLKFENGQWIAETGVSGGVDRREVQRLRRRNQQLEEENNLLRLKVDILLDMLSESTAESHLMEKELDELRISRKRK
# Variants of: B1
# Assay: split hRluc protein-fragment-assisted complementation assay; HEK293T cells; expression plasmids 400 ng each; triplicate, means ± SD; read off a plot
row,Variant,response
1,chain 1 L84A,~1.9
2,"chain 1 L84A, chain 1 L98A",~0.28
3,chain 1 L77A,~3.2
4,"chain 1 L77A, chain 1 L91A",~0.55
5,"chain 1 L77A, chain 1 L84A, chain 1 L91A, chain 1 L98A",~0.5
6,"chain 1 L77A, chain 1 L84A",~0.18

# Results, then the variant that gave them:
row,response,Variant
1,~4,chain 1 L91A
2,~0.7,"chain 1 L91A, chain 1 L98A"
3,~5.4,chain 1 L98A
